± gives the uncertainty stated by the source.
Experiment: amyloid nucleation score (Sup35N fusion, yeast selection) (log enrichment); library NNK2; higher = more nucleation; inactive = no reads after selection
Procedure, shortened: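 Yeast lacking psi expressed peptides of 20 random codons fused to Sup35N, received 100 μM copper sulfate for 24 hours, and were then grown for 7 days at 30°C on medium lacking adenine and uracil. Illumina sequencing of input and output plasmid inserts provided the reads. Nucleation scores are DiMSum log enrichments of output over input, centred on the mode of non-aggregating sequences. Any sequence with under 100 input reads was excluded.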

Point of comparison: CPDHNGRFGSWVGEYHVGLS, amyloid nucleation score 1.43 ± 0.17. Against it:
- YLLFHYGFLN — lower, -1.1 ± 0.63
- EDLWWVQLSNLKDSVDEYCR — lower, 0.007 ± 0.21
- HQRGMNLISFVWHSENVRIW — within error, 1.07 ± 0.61
- MTIVCRWR — higher, 3.04 ± 0.16
- YILLFSVGICPPRSWLIYCP — higher, 4.21 ± 0.11
- VVKRARLSWPFIARKYTSMV — lower, 0.116 ± 0.4
- MYIGVL — lower, -0.065 ± 0.45
- SDGLGSILIFGPPNY — lower, -0.992 ± 0.3
- RDRFS — lower, 0.248 ± 0.61
- RIHYYVVLCLGSRRSTFGLR — lower, -0.171 ± 0.28
- KQGKRSTAHRSIVPLSFRH — within error, 1.58 ± 0.14
- VTGRAFNVTHGDAVEI — lower, 0.299 ± 0.39
- WGEVRLCESMVCCLGRIQGR — higher, 4.1 ± 0.063
- IEVRRKPSLDLKLDGEGIVR — within error, 1.37 ± 0.32
- SKNSYSAHPKL — higher, 4.83 ± 0.06
- QSCWIFSGHSE — lower, -1.03 ± 0.44
- MDCRLV — lower, 0.216 ± 0.51
- LWVSVLFKMHAYWLGLEPNS — higher, 2 ± 0.15
- CFSCFIASGDT — higher, 7.439 ± 0.026
- KKVVLRPS — higher, 4.97 ± 0.051
- WTNFVGLSALFSMWV — lower, -1.54 ± 1.1
- VDFTCLYSVNFRIHVYISDM — higher, 2.71 ± 0.2
- LVHRCRYGLLTGLFEGQPVM — lower, -1.12 ± 1.1
- SAWQRIEWL — lower, -0.339 ± 0.64
- KLHSVQLNTRVLIN — lower, 0.219 ± 0.26
- KMLPSGARDLMPMDLLDFMM — lower, -0.234 ± 0.25
- RIKYG — higher, 4.05 ± 0.065
- FCILSWGLSVRYSRVPLNYK — within error, 1.14 ± 0.18
- CNTCLLSFG — lower, 0.814 ± 0.25
- FTTPSRS — lower, 0.623 ± 0.53
- NTSQDG — higher, 5.15 ± 0.087
- GVKFQAAEAGPPGTYGTLGS — lower, -0.031 ± 0.63
- DACAFVCLYWNVLTRFELMP — lower, -0.458 ± 0.32
- PSNLKFKYSCFLLNKCMGVR — lower, 0.153 ± 0.43
- YLSQWLSEWGVQRYVESYAR — lower, 0.445 ± 0.29
- ETYLVFV — lower, 0.072 ± 0.79
- MVWSSRDS — lower, -0.548 ± 0.54
- DRHRFIHFYAQGERKLSRTM — lower, -0.358 ± 0.79
- HLTSKVTGASIKVTKVNYLD — lower, -1.25 ± 0.64
- KILFPVR — lower, -0.927 ± 1
- SFRDLDAAVEEV — lower, -0.225 ± 0.48
- LFCVDNVVKKGTVP — lower, -0.365 ± 0.76
- SLMFKRRK — lower, 0.317 ± 0.28
- FRYFDWCIFYSYLLVCY — lower, -1.96 ± 1.1
- WNYSNRNDYELFRTLK — lower, 0.316 ± 0.57
- SNGYYSNGPTLLHATTHVTV — lower, -0.431 ± 0.64
- RTRLS — lower, 0.559 ± 0.21
- IDERATSEDSSGRKDSVTFL — lower, -0.306 ± 0.28
- VKSLLRDLCGPGCMLYMIVH — lower, -0.11 ± 0.53
- YSSGF — lower, -0.384 ± 0.39
- VYMSQWSKVFALFALNFKVN — higher, 1.84 ± 0.2
- LTHWI — lower, -0.284 ± 0.23
- AWTAETFKVLCVVMSY — lower, 0.382 ± 0.24
- LAKWGKLCCVLYQYPVSLGE — lower, 0.71 ± 0.28
- ACVTPTAARNQIPALIYDTS — lower, -0.135 ± 0.63
- ILSAFV — lower, -0.16 ± 0.36
- SVYDTKHLLNLLDSAVISNH — lower, -0.481 ± 0.76
- VAYLTFLWNQYAVRARKRLP — lower, -0.085 ± 0.35
- IRWNTTFGFDSEAPTCCATS — lower, 0.026 ± 0.8
- FCAYVAWLSSWNIQPAKGRG — within error, 1.1 ± 0.35
- ACCRTNFATLVLKEKMNLD — lower, 0.326 ± 0.3
- FNDHWARRRRDFVNIWFWSE — lower, -0.047 ± 1.1
- LSGLVFIN — lower, -0.053 ± 1
- LVIVVT — higher, 3.1 ± 0.091
- MSMLMRVRCEISVTTML — higher, 4.498 ± 0.031
- ETVFRLFFSYRGVANHVVPG — lower, -0.408 ± 0.63
- RFRHNKWYCLLRLAG — within error, 0.956 ± 0.33
- VMYRCSRSALNLHVRRNWRW — lower, 0.455 ± 0.65
- LVLTSLQHGQFVVVVSVVW — lower, 0.543 ± 0.31
- VSIYLG — higher, 2.72 ± 0.15
- DYCMFFGVTRISSLH — higher, 3.95 ± 0.073
- KEFYGKRIFRCLYDVLVVLF — lower, -1.25 ± 0.54
- ATYPVSATGSGELWVDRGQE — lower, 0.603 ± 0.38
- YKLAWARYGCIAVCTMLRFP — lower, 0.102 ± 1.1
- IMCLKFLNPTHFGCVGVCML — lower, -1.22 ± 0.41
- FRWYFNVAATCGNRAPGRNV — within error, 1.31 ± 0.18
- NIDICDVWFMNCLYIILVAQ — higher, 5.192 ± 0.031
- LAGFGMNFSFRFSVLTWGSV — higher, 3.13 ± 0.09
- HIGILTT — within error, 1.64 ± 0.32
- MKSSPA — lower, -0.395 ± 0.32
- IMNSQVVGSFHA — lower, -0.357 ± 0.37
- GFLQSGCPSTLLSLRKRAIL — lower, 0.307 ± 0.51
- LSTRLGNVSHFWLWTRSCMG — within error, 1.04 ± 0.34
- DIHQFGCTHIGCVIGYCCRV — higher, 8.504 ± 0.031
- YTIAECQSCPQNFLFFH — higher, 5.96 ± 0.063
- LSRNYFVSVLFFSTVRMALA — lower, -0.433 ± 0.54
- GLKMLFNVNLQDM — lower, -0.368 ± 1
- RMDTGNLYVFLMKCFNMAYA — higher, 5.2 ± 0.091
- NDNKRYIHYPFLMGFTVSYL — lower, -0.401 ± 0.6
- NMRHI — lower, 0.75 ± 0.41
- VVYSSRLRSDA — within error, 1.12 ± 0.4
- YIRLQAIQSEVERSSVPVIK — higher, 2.16 ± 0.083
- ISWIFLKSAFTELAVFWDFI — lower, 0.726 ± 0.46
- FIARDRLMTDRTRGKPSWEG — lower, 0.231 ± 0.3
- CYMVRGYSFSNRWTAHGHEM — higher, 2.51 ± 0.21
- ILGDRSRSS — lower, 0.388 ± 0.62
- AWSLFYRLLPPWNE — lower, -0.656 ± 1.1
- GVRYSFSTTRKFTELSFNIC — higher, 3 ± 0.16
- WYVYSESRIS — lower, -0.267 ± 0.42
- YNIHYMNVLIGALHL — higher, 8.327 ± 0.056
- SWGFI — lower, -2.19 ± 0.62
- LLVKF — within error, 0.641 ± 0.74
- RSTLDQRRFGNRF — lower, 0.063 ± 1.1
- RCFNLWSNSVLFNCSVCSAE — higher, 7.414 ± 0.065
- FCWFRLLEYFSR — lower, -0.201 ± 0.45
- GSKGIRRYCLTIFVSPVQSA — within error, 0.895 ± 0.81
- RTTGTLLMRAESALPGRVVN — higher, 5.762 ± 0.055
- AVMWTK — lower, 0.669 ± 0.52
- SENFLYLDVVFMCHSMIDRG — lower, 0.131 ± 0.54
- PACTLESYRSNNFDGLFMTT — lower, -0.609 ± 0.76
- NCSLCFENGMAYFCILIEGV — higher, 5.645 ± 0.043
- AICMAY — within error, 1.27 ± 0.095
- CSSSNINRFS — higher, 2.99 ± 0.12
- FARGMVRSSTGTM — lower, -1.88 ± 0.44
- LHGGVLFKTSTMAGFR — lower, -0.501 ± 0.54
- EICLHLQAYAIKQCGLLGTP — lower, 0.407 ± 0.26
- VSVGWRVAVWWILKWEHLSR — higher, 9.541 ± 0.034
- NILAMKLFVNKFHVIFDEFL — lower, 0.097 ± 1.1
- TLGGSSTFRY — lower, -0.152 ± 0.45
- IYQVRLYD — lower, -0.923 ± 0.5
- VEADVYDRDVTSWRMLYLYK — lower, 0.174 ± 0.4
- YIGPNKFLKQFDCLINFFLT — higher, 3.08 ± 0.097
- DYGLVCY — lower, 0.277 ± 0.22
- FGDYPNSLKWLQE — lower, -0.558 ± 0.63
- MDMPVWG — within error, 0.285 ± 1
- DYLSIFDYHDMMGQNFL — lower, -0.151 ± 0.49
- GRFIHKIVLNDGV — lower, 0.084 ± 0.56
- VGFGVFVV — lower, 0.213 ± 0.24
- CKALQLLKGNLIDYCVPFLV — lower, -1.05 ± 0.48
- ALPCRLISFFALVGWIVG — lower, -0.088 ± 0.49
- LSQQSSMLKDRITDICGDLL — within error, 1.4 ± 0.33
- RMRLSYWHCISLGLVLLRPI — lower, 0.298 ± 0.39
- IIFDNFLEMVAILWLLVCCY — lower, -1.66 ± 0.76
- CNPASYMSALVGGSVSRDSR — lower, -0.076 ± 0.46
- SSQTKYQAFRVQATGVCAWM — lower, -0.123 ± 0.23
- EDVDICRHFYRGVVNNGYQR — lower, 0.328 ± 0.57
- HSFIGSRIVSFGFDVRGRWA — higher, 4.91 ± 0.059
- RVNGLKSRVSRVRIGNVS — lower, 0.224 ± 0.23
- VSEMPLLYR — within error, 0.769 ± 0.53
- NNSMLLSDTLLGYRRTGLDC — lower, -0.176 ± 0.3
- CCWAVWDLRGFTRGWRLRRG — lower, 0.509 ± 0.16
- YCHALARLSGFL — lower, 0.127 ± 0.27
- FSFIGFLNRNKSAALCKMDI — lower, -1.16 ± 0.76
- KYCDWYL — lower, -0.274 ± 0.22
- ESFARFIAM — lower, -0.033 ± 0.55
- EVLSRDRSSAPFAVLLAGSR — lower, 0.129 ± 0.76
- YIESIAECQSVRVGSIVDCF — lower, -1.33 ± 0.75
- GGLMRTSPNS — lower, -0.108 ± 1.1
- FSGLGDCEVMYVFVNNRLGW — lower, -0.699 ± 1
- KAVVMLI — lower, -1.09 ± 0.31
- MNASDIKTFKL — lower, -0.531 ± 1.1
- HEECIGSCCYGRWSCGTTLW — higher, 4.84 ± 0.054
- REDNPRADTCMAYGV — within error, 1.14 ± 0.35
- HFFTQY — higher, 2.95 ± 0.1
- VSVHAVGLSYCMICFSLQNG — lower, -0.611 ± 0.23
- KFTLGHVNIVWNMVVYATQE — higher, 8.24 ± 0.083
- MSYVLMVFASPIMYVTHPIA — higher, 1.89 ± 0.2
- DFCWAFRAASLSRGVRLAAV — higher, 3.23 ± 0.11
- SRCIFVFYS — higher, 8.165 ± 0.059
- FWGGKNYI — lower, -1.5 ± 0.75

In the case of SMEVAFSELSKVKRTTCVDY, the amyloid nucleation score is reported as “inactive”.
With VGSSEAFCYGLTDFKRENLA the amyloid nucleation score was “inactive”.
With MYVFMVSFYMGFCKYQNSVI the amyloid nucleation score was “inactive”.
In the case of LYKRMYECRRYFLMWNYRGF, the amyloid nucleation score is reported as “inactive”.
For NNRHLSPVVRSY, the amyloid nucleation score was “inactive”.
In the case of HLCGC, the amyloid nucleation score is reported as “inactive”.
With IFGLNHWTVFSSPINLSTSG the amyloid nucleation score was “inactive”.
For VGYFLSPMTVQLN, the amyloid nucleation score was “inactive”.
In the case of CFVQLCACRYTIRNWGFRWL, the amyloid nucleation score is reported as “inactive”.
For FSTQGTFVSVHGVADLAVCF, the amyloid nucleation score was “inactive”.
For VLGVLR, the amyloid nucleation score was “inactive”.
For HWWLIIRDLKASRIDVRQWE, the amyloid nucleation score was “inactive”.
For YNSVELYFACLFLAHAVLVY, the amyloid nucleation score was “inactive”.
In the case of VRLLMKLYNVPWVFH, the amyloid nucleation score is reported as “inactive”.
In the case of YFKRSGLSICRTGKLALGWH, the amyloid nucleation score is reported as “inactive”.
With FDWISVRGTGWFCLRWWLYV the amyloid nucleation score was “inactive”.

From the supplement of paper PMC12042874
